The values that follow come from patent US20250236667A1, “ANTIBODIES TO MUTANT CALRETICULIN AND USES THEREOF” (CENTRAL ADELAIDE LOCAL HEALTH NETWORK INC, priority 2021, published 2025).

Usually Kd stands for the concentration at which binding is half-saturated.

Assay [1] deals with T1, full-length 30 amino acid CALR mutant neoepitope peptide (peptide used for immunisation) (human).
T1 construct: also called full-length peptide
T1 peptide: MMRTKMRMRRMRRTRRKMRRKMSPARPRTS
As to the kind of experiment: Scatchard analysis, 125I-labelled and unlabelled 4D7 on plate-bound full-length peptide; right plot of three replicates, R2= 0.994. The method, then: (§1) A. Western blot screening of various mutant CALR antibody clones produced from hybridomas in TF-1 TpoR and TF-1 TpoR CALR^del61. Varying levels of intensity can be observed, compared to commercial Dianova monoclonal mutant CALR antibody. 4D7 is able to detect mutant CALR protein in CALR^del61 cells but not in CALR wild type TF-1 cells. B. Replicate Scatchard analyses of 4D7 using I¹²⁵-labelled and unlabelled 4D7 bound to full-length peptide (n=3). C. […] Cells were cultured in the presence or absence of 10 ng/ml TPO (n=3). D. Paracrine CALR-mutant protein is not sufficient to maintain TPO sensitive cells in culture. TF1 TpoR and TF-1 TpoR CALR^del61 cells were seeded at the same density and cultured in the presence or absence of TPO. […] Cell populations on either side of the membrane were counted every 24 hours over 4 days in triplicate and representative images were taken on day 4. […] E. Histogram overlays showing fluorescence intensity of unstained and PE conjugated IgG2a isotype control in TF-1, TF-1 TpoR and TF-1 TpoR CALR^del61 compared to 4D7 conjugated to PE.
(§2) 4D7 was radio-iodinated with ¹²⁵I (Perkin-Elmer) using Pierce Pre-Coated Iodination tubes (Thermo Scientific) with an estimated specific activity of 7733cpm/ng. […] 200 μL aliquots from each well were counted on a PerkinElmer 2470 Wizard2 Automatic Gamma Counter. Dissociation constants were calculated using the EBDA and LIGAND programs.

The target of assay [2] is T1, full-length 30 amino acid CALR mutant …. The experiment in a line: Scatchard analysis, 125I-labelled and unlabelled 4D7 on plate-bound full-length peptide; left plot of three replicates, R2= 0.9794. The method, then: as §1, §2
The target is the same in assay [3]. As to the kind of experiment: Scatchard analysis, 125I-labelled and unlabelled 4D7 on plate-bound full-length peptide; middle plot of three replicates, R2= 0.9926. The method, then:
as §1, §2

Assay [4] concerns the target T2, thrombopoietin receptor (TpoR) (UniProt P40238 26-635, limits assumed).
T2 construct: whole, on cells; It was immunoprecipitated with anti-FLAG beads, so the expressed TpoR evidently carries a FLAG tag; The construct and the position of the tag are not described; also called TPO receptor
T2 sequence (looked up): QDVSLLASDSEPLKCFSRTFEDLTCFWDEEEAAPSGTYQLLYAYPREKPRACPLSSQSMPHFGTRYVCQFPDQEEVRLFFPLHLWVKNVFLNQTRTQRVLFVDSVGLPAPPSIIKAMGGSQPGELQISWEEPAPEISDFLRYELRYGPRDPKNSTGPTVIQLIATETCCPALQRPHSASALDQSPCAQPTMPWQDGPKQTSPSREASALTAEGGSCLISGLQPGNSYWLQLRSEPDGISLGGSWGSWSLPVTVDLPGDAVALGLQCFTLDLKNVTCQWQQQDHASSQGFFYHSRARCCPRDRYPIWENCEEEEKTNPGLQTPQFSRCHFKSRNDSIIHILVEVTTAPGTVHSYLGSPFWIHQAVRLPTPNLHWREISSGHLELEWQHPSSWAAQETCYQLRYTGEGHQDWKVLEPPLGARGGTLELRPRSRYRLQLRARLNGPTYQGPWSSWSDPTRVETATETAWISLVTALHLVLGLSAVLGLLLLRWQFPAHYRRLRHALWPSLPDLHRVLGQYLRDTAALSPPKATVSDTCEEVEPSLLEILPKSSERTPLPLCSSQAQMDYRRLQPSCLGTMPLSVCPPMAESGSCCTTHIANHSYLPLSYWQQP
As to the kind of experiment: flow cytometry on TF-1 TpoR cells (TpoR with endogenous wild type CALR). (In general: Flow cytometry measures light scatter and fluorescence of single cells or particles in a stream.)

For assay [5], the target named is T1, full-length 30 amino acid CALR mutant …. The experiment in a line: 125I-Scatchard analysis, saturation binding of 125I-4D7 to plate-coated peptide. The procedure:
4D7 was radio-iodinated with ¹²⁵I (Perkin-Elmer) using Pierce Pre-Coated Iodination tubes (Thermo Scientific) with an estimated specific activity of 7733cpm/ng. For saturation binding assays, plates were coated overnight at 4° C. with full-length neoepitope CALR peptide (2 μg/mL) or control scrambled peptide (2 μg/mL). Wells were washed 3 times with phosphate buffered saline+0.05% Tween20, blocked with 5% bovine serum albumin for 1 hour followed by further washing. ¹²⁵I-4D7 was added at concentrations ranging from 2 pM to 2.5 nM in triplicate and incubated at room temperature for 2 hours. After washing, 1M HCl was added for 30 minutes to elute bound antibody. 200 μL aliquots from each well were counted on a PerkinElmer 2470 Wizard2 Automatic Gamma Counter. Dissociation constants were calculated using the EBDA and LIGAND programs.

Assay [6] has as its target T3, wild type calreticulin (CALR) (human, UniProt P27797 18-417).
T3 construct: also called CALR^WT; endogenous wild type CALR
T3 sequence (looked up): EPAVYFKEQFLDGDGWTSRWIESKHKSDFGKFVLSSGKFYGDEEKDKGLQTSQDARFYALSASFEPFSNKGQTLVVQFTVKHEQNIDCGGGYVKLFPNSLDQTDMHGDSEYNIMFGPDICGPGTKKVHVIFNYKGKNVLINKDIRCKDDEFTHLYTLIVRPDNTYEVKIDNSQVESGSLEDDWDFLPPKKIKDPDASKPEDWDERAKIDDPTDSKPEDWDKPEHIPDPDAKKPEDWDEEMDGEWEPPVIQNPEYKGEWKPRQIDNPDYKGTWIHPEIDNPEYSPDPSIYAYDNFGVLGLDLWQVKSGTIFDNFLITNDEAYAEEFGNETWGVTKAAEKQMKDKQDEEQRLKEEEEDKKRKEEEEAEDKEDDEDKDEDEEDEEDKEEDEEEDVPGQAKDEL
As to the kind of experiment: Western blot of TF-1 cell extracts (hybridoma clone screen). The method, then: B. Replicate Scatchard analyses of 4D7 using I¹²⁵-labelled and unlabelled 4D7 bound to full-length peptide (n=3). C. […] Cells were cultured in the presence or absence of 10 ng/ml TPO (n=3). D. Paracrine CALR-mutant protein is not sufficient to maintain TPO sensitive cells in culture. TF1 TpoR and TF-1 TpoR CALR^del61 cells were seeded at the same density and cultured in the presence or absence of TPO. Cells were separated by semi-permeable membrane in a horizontal co-culture system. Cell populations on either side of the membrane were counted every 24 hours over 4 days in triplicate and representative images were taken on day 4. Exogenous CALR secreted by TF-1 TpoR CALR^del61 was unable to assist growth of factor dependent TF-1 TopR cells (n=3). E. Histogram overlays showing fluorescence intensity of unstained and PE conjugated IgG2a isotype control in TF-1, TF-1 TpoR and TF-1 TpoR CALR^del61 compared to 4D7 conjugated to PE.
For immunoblotting of total lysates, cells were lysed in NP40 buffer containing 150 mM NaCl, 50 mM Tris pH 7.6, 1% NP-40, supplemented with protease inhibitors (Complete, Roche) and phosphatase inhibitor cocktails, and boiled for 5 minutes after addition of sample buffer (60 mM Tris pH 6.8, 5% glycerol, 1% SDS, 2% β-mercaptoethanol, 0.02% bromophenol blue) before SDS gel electrophoresis followed by Western blotting (Tvorogov et al, 2010). […]
A general note: Immunoblotting shows a protein as a band on a membrane.

The target in assay [7] is T1, full-length 30 amino acid CALR mutant …. The experiment in a line: ELISA on peptide.
In assay [8] the test system is TF-1 TpoR CALR^del61 cells. The experiment in a line: Cell proliferation, trypan blue exclusion. The class given is cell-based, human. Particulars: 5 or 20 μg/mL; FIG. 8. The procedure:
[…] Cells were seeded in triplicate and each well was counted in triplicate every 24 hours for 5 days using trypan blue exclusion.

The target of assay [9] is T3, wild type calreticulin (CALR). The experiment in a line: Western blot of cell extracts.
Assay [10] relates to mutant CALR protein. As to the kind of experiment: Western blot detection of mutant CALR by hybridoma clones. In kind it is binding, human. The following applies: cell extracts from TF-1 cells transduced with and without mutant CALR; data not shown. The method, then:
(§3) Rats were immunised with a CALR mutant peptide “MMRTKMRMRRMRRT RRKMRRKMSPARPRTS” coupled to KLH, this peptide sequence is unique to CALR mutant. Serum from the immunised rats was screened by enzyme linked immunoassay, to verify a strong titre to the peptide immunogen, prior to performing the hybridoma fusion. Immunised rat spleen cells were harvested and a spleen single cell suspension was combined with Sp2/O myeloma cell line. The cell mixture was treated with polyethylene glycol plus DMEM prior to been plated in 96 well flat bottom plates. The expanding hybridomas were screened initially by ELISA and the positive clones were further verified by western blot, for reactivity to the expressed CALR mutant protein before subcloning the hybridomas for antibody production.
For immunoblotting of total lysates, cells were lysed in NP40 buffer containing 150 mM NaCl, 50 mM Tris pH 7.6, 1% NP-40, supplemented with protease inhibitors (Complete, Roche) and phosphatase inhibitor cocktails, and boiled for 5 minutes after addition of sample buffer (60 mM Tris pH 6.8, 5% glycerol, 1% SDS, 2% β-mercaptoethanol, 0.02% bromophenol blue) before SDS gel electrophoresis followed by Western blotting (Tvorogov et al, 2010). Primary antibodies against pERK (#9101), pSTAT5 (#9359), ERK (#4695), Actin (#4970), Caspase 3 (#14220), wildtype CALR (#12238) were purchased from Cell Signalling. Primary antibodies against pSTATI (#612233), pSTAT3 (#612357), STATI (#610186), STAT3 (#610190), STAT5 (#610192) and Anti-phosphotyrosine 4G10 (#610012) were purchased from BD Biosciences. Mutant CALR monoclonal antibody CAL2 was purchased from Dianova (Hamburg, Germany). Immunopreciptation of TpoR was performed in standard NP40 lysis buffer with additional 50 mM iodoacetamide to avoid any de novo disulfide bond formation post lysis. To reduce IgG background during immunoprecipitation anti-FLAG conjugated to magnetic beads (Sigma, #M8823) were used. For this same reason, anti-FLAG-HRP conjugated antibodies (Sigma, #A8592) were used in western blotting.

The subject of assay [11] is 30 amino acid peptide corresponding to the C-terminal mutant CALR neoepitope sequence. The experiment in a line: ELISA binding to peptide. Set-up: species or system human. The method, then:
as §3
In general terms: ELISA stands for enzyme-linked immunosorbent assay.

B1: 4D7 rat monoclonal IgG2a anti-mutant calreticulin antibody (antibody, V domains shown)
VH: QVQLQQSGAELAKPGSSVKISCKASGYTFTNYDMSWIKQRPGQALEWIGAINPGNGVTDYNEKFRGKATLTVDKSSSTAFMQLSSLTPEDTAVYHCAREYRDNYGYFDYWGQGVMVTVSS
VL: DIVLTQTPVSLSVTLGDQASISCRSSQSLEYSDGYTYLDWFLQKPGQSPQLLIYEVSSRFSGVPDRFIGRGSGTDFTLKISRVEPEDLGVYYCFQATHDPFTFGSGTKLEIK
notes: also called clone 4D7; clone 4D7 mAb
Regarding B1, the Kd in assay [1] is 1.25 nM; in [2] it was 1.91 nM; in assay [3] it was 1.43 nM; in assay [5], 1.53 nM. Besides, the binding result in [4] is listed as “no binding (tested: 4 µg/mL (FIG. 1D legend))”; in assay [6], “no binding”.

B2: 9H11 rat monoclonal anti-mutant calreticulin antibody (antibody, V domains shown)
VH: QVQLQQSGAELTKPGSSVKISCKASGYTFTTYDISWIKQRPGQALEWIGAIYPGGETTGYNEKFKDKATLTVDKSSNTAFMQLSSLTPEDTAVYYCARWGHTTGTRFDHWGQGVMVTVSS
VL: DIVLTQTPVSLSVSLGDQASISCRSSQSLEYSDGYTYLEWYVQKPGQSPQLLIWEVSDRFSGVPDRFIGSGSGTDFTLKISRVEPEDLGVYYCFQATHDPPTFGGGTKLELK
notes: also called rat anti-human mutCALR 9H11
Turning to B2, the binding result is given as “binds” in assay [7] and “no binding” in assay [9]. In addition, in assay [8], the “proliferation of cytokine-independent TF1 TpoR/mutCALR cells” value is listed as “inhibit proliferation”. The “detecting mutant but not wild type CALR protein by Western blotting” value in [10] is listed as “superior activity”. Also, in assay [11], the “binding to peptide by ELISA” value was “positive binding”.
